Literature values as cited in patent US20180140739A1, “HAEMOSTATIC DEVICE” (HAEMOSTATIX LIMITED, priority 2015, published 2018).

Target: T1, fibrinogen hole 'a' and hole 'b' (Homo sapiens, UniProt P02675+P02679)
T1 sequence (P02679 27-433 limits assumed): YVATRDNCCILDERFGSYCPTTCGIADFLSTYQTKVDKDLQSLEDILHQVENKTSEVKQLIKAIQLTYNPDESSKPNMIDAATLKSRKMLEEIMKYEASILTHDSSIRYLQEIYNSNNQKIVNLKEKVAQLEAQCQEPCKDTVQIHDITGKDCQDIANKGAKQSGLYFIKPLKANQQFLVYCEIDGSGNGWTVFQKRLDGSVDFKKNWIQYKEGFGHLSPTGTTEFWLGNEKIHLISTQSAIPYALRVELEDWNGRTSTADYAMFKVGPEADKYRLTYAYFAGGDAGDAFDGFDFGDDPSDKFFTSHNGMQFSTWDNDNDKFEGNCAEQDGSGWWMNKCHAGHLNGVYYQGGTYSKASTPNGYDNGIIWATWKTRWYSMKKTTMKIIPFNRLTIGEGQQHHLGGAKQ
T1 sequence (P02675 31-491): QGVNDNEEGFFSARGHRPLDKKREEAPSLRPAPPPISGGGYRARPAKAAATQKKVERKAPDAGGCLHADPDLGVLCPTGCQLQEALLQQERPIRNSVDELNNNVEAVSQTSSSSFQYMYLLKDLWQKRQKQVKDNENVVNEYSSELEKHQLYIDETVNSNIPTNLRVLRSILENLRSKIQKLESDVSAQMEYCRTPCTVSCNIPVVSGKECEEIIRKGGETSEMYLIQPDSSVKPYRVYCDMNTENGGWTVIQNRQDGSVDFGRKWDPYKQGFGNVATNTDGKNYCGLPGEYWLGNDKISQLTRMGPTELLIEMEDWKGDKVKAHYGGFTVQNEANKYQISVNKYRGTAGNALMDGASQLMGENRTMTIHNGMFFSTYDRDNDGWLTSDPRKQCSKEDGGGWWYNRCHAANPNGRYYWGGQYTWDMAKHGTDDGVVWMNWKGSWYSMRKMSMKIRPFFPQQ
T1 sequence (P02671 20-629 partner limits assumed): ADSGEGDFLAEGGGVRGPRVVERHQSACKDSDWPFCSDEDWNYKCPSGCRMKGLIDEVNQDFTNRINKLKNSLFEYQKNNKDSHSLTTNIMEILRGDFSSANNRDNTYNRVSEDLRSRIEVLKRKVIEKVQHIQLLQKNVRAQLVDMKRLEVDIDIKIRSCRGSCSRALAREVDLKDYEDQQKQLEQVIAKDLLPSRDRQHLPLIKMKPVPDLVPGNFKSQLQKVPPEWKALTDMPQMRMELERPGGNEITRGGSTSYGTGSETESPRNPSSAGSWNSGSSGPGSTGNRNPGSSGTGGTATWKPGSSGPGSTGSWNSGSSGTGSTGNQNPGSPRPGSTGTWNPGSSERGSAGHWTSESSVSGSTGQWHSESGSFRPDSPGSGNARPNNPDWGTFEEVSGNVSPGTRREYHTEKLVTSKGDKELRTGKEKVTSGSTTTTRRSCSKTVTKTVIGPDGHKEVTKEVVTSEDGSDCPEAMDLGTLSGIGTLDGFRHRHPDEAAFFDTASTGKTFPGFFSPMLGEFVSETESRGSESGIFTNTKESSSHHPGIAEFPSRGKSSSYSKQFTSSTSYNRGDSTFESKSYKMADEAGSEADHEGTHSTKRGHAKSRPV
Settings: cited from earlier work

| Substance | binding preference for hole 'a' / hole 'b' of fibrinogen |
| --- | --- |
| GFIRPY | binds strongly and preferentially to the ‘b’ hole of fibrinogen |
| GPRP | binds strongly and preferentially to the ‘a’ hole of fibrinogen |
| GPRPFPA (listed as Homo sapiens) | binds with high preference for hole ‘a’ in fibrinogen |
